B1: TPR t1 (parent)
chain: GACCAAUCUGCCCUCAGAGCUCGAGAACAUCUUCGGAUGCAGAGGAGGCAGGCUUCGGUGGCGCGAUAGCGCCAACGUCCUCAACCUCCAAUGCAUCCCACCACAUGAUGAUGCCUGAAGAGCCUUGGUUUUUUG

Variants of: B1
Assay: polymerase ribozyme fitness, log enrichment relative to wild type (log ratio); higher = more active; in vitro selection for triplet polymerase activity
Outline: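 Each subunit of a heterodimeric triplet polymerase ribozyme was represented by a PCR-built, transcribed mutant library that underwent triplicate single-round in vitro selection with frozen incubation at −7 °C. Extended constructs were recovered by gel excision, streptavidin-bead capture and RT-PCR, and Illumina sequencing of input and output libraries kept genotypes with ≥10 input reads and ≥1 read per output. Fitness is the logarithm of genotype enrichment relative to wild-type enrichment, from inverse-variance-weighted replicate averages, with a logarithm base of 2.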

Variant | polymerase ribozyme fitness (log ratio)
C8A C28G U96A | -3.08
C8A C31A U129C | -5.73
C8A C40A A43C U87G | -2.23
C8A C40U C53A | 0.276
C8A C40U G61U U78A C80G A100C | -6.33
C8A C49A C64U C86U G93U C94U C123A | -0.145
C8A C49A G61A | 0.627
C8A C49U C72A A100C U106G U109A U132C | -4.59
C8A C49U C73U U130A | -0.88
C8A C53A | 0.281
C8A C53A U78C C80U | -0.244
C8A C56A C70A C98U C123G | -1.64
C8A C56G A91C C123A | 0.619
C8A C56U | 0.138
C8A C62U | 0.19
C8A C62U A74U | 0.227
C8A C62U A118C | -2.69
C8A C64U A95G A111G G122U G135A | -0.12
C8A C70A | -0.98
C8A C70U A91C U116A | -2.96
C8A C72A G93C | 0.271
C8A C72G C85A A111G U126C | -1.51
C8A C72U U87A C99U | -2.56
C8A C72U U133A | -0.145

Variant | polymerase ribozyme fitness (log ratio)
C8A C79G C85G | -2.78
C8A C79U C88G C102U | -2.19
C8A C79U C98G C114U | -6.7
C8A C85U | -0.102
C8A C86G C102U C104U G110A | -4.28
C8A C115A | 0.286
C8A C115A U125G | 1.5
C8A C123A C124U G127U | 0.694
C8A C124A | 2.16
C8A G10C A50U C72U | -1.02
C8A G19U | -2.62
C8A G25U | -4.13
C8A G36U C76A U131C | -1.09
C8A G36U C82A | -0.55
C8A G39A | -0.0887
C8A G42U U96A A100U | -2.37
C8A G44U G51U U59C G77U U112C U130A | -4.84
C8A G44U G52A | -0.478
C8A G44U G57A C64U | -0.879
C8A G45C | 0.366
C8A G45C G58A C97G U106A | -3.12
C8A G47U C49U G110U | -3.49
C8A G47U C73G C82U | -1.82
C8A G47U U78G U81G | -4.17

Variant | polymerase ribozyme fitness (log ratio)
C8A G48A C89U C124U | 1.22
C8A G51C C53A C88A C114A | -5.74
C8A G51U C53G U81G C114A | -5.79
C8A G52A | -0.0157
C8A G60U | -0.464
C8A G61A U131C | 0.52
C8A G61U C98A | -3.46
C8A G63C C86A G93C | -3.35
C8A G69A G120C | -1.1
C8A G69U | 0.656
C8A G117U A119U C123U | -0.478
C8A G120U | 0.91
C8A U9G | -0.0103
C8A U9G C62A | -0.773
C8A U9G U21G | -1.13
C8A U14A G110A | -1.09
C8A U21A A84U | -0.224
C8A U21G A50G C88A C124A | -0.0763
C8A U30A A46C U109G A119U | -6.8
C8A U30C G69U A118U G120A U129G | -1.47
C8A U30G C115U U130G | -5.92
C8A U38G A43C G61C C123A | -4.73
C8A U54G A111U U116G A119U U130G | -7.62
C8A U59A | -0.964

Variant | polymerase ribozyme fitness (log ratio)
C8A U59C A105G C123A | -2.08
C8A U67C | -3.31
C8A U112C | 1.3
C8A U129A | -0.0105
C8A U133G | 0.0303
C8G A16U A90U | -0.236
C8G A18C G36U C72A U78G C82A C85G | -5.25
C8G A18U C98U | -2.18
C8G A18U G52U A90C | -1.7
C8G A18U U21A C79A C123G | -3.84
C8G A24G C72G C97G C115G | -4.32
C8G A27U A46C G69U U78A C114U | -4.5
C8G A27U C53U A111C C114G | -6.88
C8G A27U C89G | -4.7
C8G A27U C104A U133A | -3.65
C8G A41C G63U G113A A118G | -3.33
C8G A43U A95U U109A C123G | -5.23
C8G A46U G117C | -1.21
C8G A50C C72A G93A | -0.538
C8G A50U C56A C79G A100G A111U | -5.8
C8G A75G C88A C124U | 1.57
C8G A91U | -1.17
C8G A103U | -3.34
C8G A108G | -0.714

Variant | polymerase ribozyme fitness (log ratio)
C8G C11A U96G C97G U131G | -5.45
C8G C11G C56A C104A | -1.39
C8G C11U | 1.67
C8G C11U C40U A90G C97U U129G | -1.14
C8G C11U C70A C94U | -1.28
C8G C11U C85U U130C | -0.895
C8G C12A C20U A37C U92A G113U | -1.85
C8G C12A C28G A29G G48U A68U C114A U125G | -6.52
C8G C12A G39A G61U A111U U130A | -2.24
C8G C12A U109A A119C A121G | -5.47
C8G C12G U30C C53G C114U | -4.29
C8G C13A | 0.587
C8G C13A A16U | 0.292
C8G C13G | 0.865
C8G C13G A37C G52C C86U | -2.49
C8G C13U G47C | -0.248
C8G C15A G51U C76U C98U | -4.46
C8G C15U A18C C53A U55A C56G | -1.96
C8G C15U G48C C124G | 0.169
C8G C15U G69C A90U | -3.02
C8G C20G C72U A95G | -3.64
C8G C20U A46U G52C | -3.42
C8G C20U A68G G113C | -5.52
C8G C20U C89A A100U C102A | -5.22

Variant | polymerase ribozyme fitness (log ratio)
C8G C20U G42U A83U U116C C123A | -3.74
C8G C20U G61A C101U | -0.517
C8G C22A C53U C89A C114U G117A G135A | -3.7
C8G C22G | -3.9
C8G C22G G36A C85U U112A | -2.18
C8G C28A C72G | -3.76
C8G C28A U130A | -5.09
C8G C34G C88U U112C G113A | -6.08
C8G C34G G39C G120U | -4.99
C8G C34U C70A G117A U126A | -6.92
C8G C34U G39U G58A A84U | -5.29
C8G C40A | -1.11
C8G C40A C53G G63U U109G | -7.06
C8G C40A C70G C114A | -5.85
C8G C40A U78C | -0.518
C8G C40G G71U U81G C82U | -0.811
C8G C40G U54C C99U C104U | -2.91
C8G C40G U81G C82U | -0.759
C8G C49G G71A U87A C124U | 0.992
C8G C53G C56U G93C | 0.798
C8G C53U C89A | -1.28
C8G C56A C123A | 1.29
C8G C56A G77A | -0.27
C8G C56G C89A A90C G107C G117C | -5.56

Variant | polymerase ribozyme fitness (log ratio)
C8G C62A C94A G120U | 0.318
C8G C62U A118U U131C | 1.45
C8G C62U U87A U112G G113U C123U G127A | -4.35
C8G C64U G135U | 0.0899
C8G C70G | -1.84
C8G C72G C82A C102U | -1.73
C8G C73A G120C | 2.29
C8G C73G G128A | -1.19
C8G C76A C82A C114G | -4.44
C8G C76U | -0.187
C8G C79G C80A | -5.06
C8G C79U G110C | -4.01
C8G C85A A121U | 1.35
C8G C85U | -0.269
C8G C89A A105U | -3.66
C8G C89A G117A U129A | -2.73
C8G C98G | -5.23
C8G C102A | -1.02
C8G C123A | 0.956
C8G G10A | 0.258
C8G G10A C12U G35A A66C C72G A121U G122C U130C | -7.42
C8G G10A C20U A24U C49U G61A C80G G120U | -7.85
C8G G10U A16C G77U U81A C85A | -3.62
